Consider two molecules from PMC3458577 (Nucleic Acids Research, 2012).

The test concerns the target Recombinant human WRN protein (wild type) (human, UniProt Q14191 1-1432). As to the kind of experiment: co-IP.

Recombinant human WRN protein (wild type), sequence (Q14191 whole entry): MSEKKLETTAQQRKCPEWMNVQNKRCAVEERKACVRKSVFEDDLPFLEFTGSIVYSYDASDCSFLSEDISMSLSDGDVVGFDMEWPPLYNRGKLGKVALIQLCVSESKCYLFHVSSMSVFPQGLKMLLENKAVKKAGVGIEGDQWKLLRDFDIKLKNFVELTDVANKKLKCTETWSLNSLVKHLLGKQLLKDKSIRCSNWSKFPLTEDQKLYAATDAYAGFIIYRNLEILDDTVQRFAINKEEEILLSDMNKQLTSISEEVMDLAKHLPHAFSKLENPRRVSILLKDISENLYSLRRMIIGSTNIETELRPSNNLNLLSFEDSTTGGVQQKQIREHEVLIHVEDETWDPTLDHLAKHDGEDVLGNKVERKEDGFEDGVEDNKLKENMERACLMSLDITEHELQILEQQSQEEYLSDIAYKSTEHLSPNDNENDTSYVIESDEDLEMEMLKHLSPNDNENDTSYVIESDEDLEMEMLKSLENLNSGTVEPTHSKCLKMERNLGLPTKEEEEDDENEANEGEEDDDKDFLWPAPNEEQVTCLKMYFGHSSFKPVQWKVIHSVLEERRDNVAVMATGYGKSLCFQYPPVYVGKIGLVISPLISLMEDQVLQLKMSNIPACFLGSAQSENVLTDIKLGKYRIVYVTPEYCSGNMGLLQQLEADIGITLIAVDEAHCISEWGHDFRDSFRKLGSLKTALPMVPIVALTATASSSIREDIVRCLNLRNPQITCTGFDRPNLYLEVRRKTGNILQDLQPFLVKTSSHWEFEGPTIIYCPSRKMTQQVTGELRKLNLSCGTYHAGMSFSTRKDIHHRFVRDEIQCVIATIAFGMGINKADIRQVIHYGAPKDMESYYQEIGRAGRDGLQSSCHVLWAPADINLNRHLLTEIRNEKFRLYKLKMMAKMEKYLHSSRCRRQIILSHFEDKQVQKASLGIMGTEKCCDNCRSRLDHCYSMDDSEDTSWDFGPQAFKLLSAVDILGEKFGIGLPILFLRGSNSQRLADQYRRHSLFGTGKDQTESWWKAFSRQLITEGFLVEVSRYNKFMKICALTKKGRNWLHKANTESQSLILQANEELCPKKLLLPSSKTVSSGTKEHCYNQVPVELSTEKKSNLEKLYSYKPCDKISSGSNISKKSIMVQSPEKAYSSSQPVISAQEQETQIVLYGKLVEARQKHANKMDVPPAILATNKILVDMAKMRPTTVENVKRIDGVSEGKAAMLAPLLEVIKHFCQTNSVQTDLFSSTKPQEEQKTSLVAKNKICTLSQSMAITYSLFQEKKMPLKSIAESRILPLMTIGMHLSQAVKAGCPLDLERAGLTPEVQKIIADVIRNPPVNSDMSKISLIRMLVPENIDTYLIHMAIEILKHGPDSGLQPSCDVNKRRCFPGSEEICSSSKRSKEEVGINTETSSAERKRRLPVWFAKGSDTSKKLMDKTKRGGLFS

B1: (His)6-tagged Polλ244–575 (domain or fragment, human, UniProt Q9UGP5 244-575, looked up)
chain: PSSQKATNHNLHITEKLEVLAKAYSVQGDKWRALGYAKAINALKSFHKPVTSYQEACSIPGIGKRMAEKIIEILESGHLRKLDHISESVPVLELFSNIWGAGTKTAQMWYQQGFRSLEDIRSQASLTTQQAIGLKHYSDFLERMPREEATEIEQTVQKAAQAFNSGLLCVACGSYRRGKATCGDVDVLITHPDGRSHRGIFSRLLDSLRQEGFLTDDLVSQEENGQQQKYLGVCRLPGPGRRHRRLDIIVVPYSEFACALLYFTGSAHFNRSMRALAKTKGMSLSEHALSTAVVRNTHGCKVGPGRVLPTPTEKDVFRLLGLPYREPAERDW
Regarding B1, the binding result is “binds”.

B2: Recombinant human Polλ protein (enzyme, UniProt Q9UGP5 1-575, looked up)
chain: MDPRGILKAFPKRQKIHADASSKVLAKIPRREEGEEAEEWLSSLRAHVVRTGIGRARAELFEKQIVQHGGQLCPAQGPGVTHIVVDEGMDYERALRLLRLPQLPPGAQLVKSAWLSLCLQERRLVDVAGFSIFIPSRYLDHPQPSKAEQDASIPPGTHEALLQTALSPPPPPTRPVSPPQKAKEAPNTQAQPISDDEASDGEETQVSAADLEALISGHYPTSLEGDCEPSPAPAVLDKWVCAQPSSQKATNHNLHITEKLEVLAKAYSVQGDKWRALGYAKAINALKSFHKPVTSYQEACSIPGIGKRMAEKIIEILESGHLRKLDHISESVPVLELFSNIWGAGTKTAQMWYQQGFRSLEDIRSQASLTTQQAIGLKHYSDFLERMPREEATEIEQTVQKAAQAFNSGLLCVACGSYRRGKATCGDVDVLITHPDGRSHRGIFSRLLDSLRQEGFLTDDLVSQEENGQQQKYLGVCRLPGPGRRHRRLDIIVVPYSEFACALLYFTGSAHFNRSMRALAKTKGMSLSEHALSTAVVRNTHGCKVGPGRVLPTPTEKDVFRLLGLPYREPAERDW
For the molecule B2, the binding result is “binds”.
